Data from patent US20210032329A1.

What was measured:
[1] = biological target: marmoset SEMA4D-His (marmoset); assay: BIACORE; antibody captured with goat anti-human IgG Fc, marmoset SEMA4D-His as analyte
mouse SEMA4D-His (mouse) = mouse SEMA4D-His (mouse) (UniProt O09126); assay: receptor blocking; antibody dilution series pre-incubated with SEMA4D-His, binding to 293PLXNB1 cells (Plexin B1) read by flow cytometry
human SEMA4D-His (human) = human SEMA4D-His (human) (UniProt Q92854); assay: as above
[2] = biological target: cynomolgus monkey SEMA4D-His (cynomolgus monkey); assay: as above
rat SEMA4D-His (rat) = assay: as above
[3] = biological target: marmoset SEMA4D-His (marmoset); assay: BIACORE; antibody captured with goat anti-human IgG Fc, marmoset SEMA4D-His as analyte (second row for this antibody)

Sequence of marmoset SEMA4D-His (marmoset) (chain, as listed by the source): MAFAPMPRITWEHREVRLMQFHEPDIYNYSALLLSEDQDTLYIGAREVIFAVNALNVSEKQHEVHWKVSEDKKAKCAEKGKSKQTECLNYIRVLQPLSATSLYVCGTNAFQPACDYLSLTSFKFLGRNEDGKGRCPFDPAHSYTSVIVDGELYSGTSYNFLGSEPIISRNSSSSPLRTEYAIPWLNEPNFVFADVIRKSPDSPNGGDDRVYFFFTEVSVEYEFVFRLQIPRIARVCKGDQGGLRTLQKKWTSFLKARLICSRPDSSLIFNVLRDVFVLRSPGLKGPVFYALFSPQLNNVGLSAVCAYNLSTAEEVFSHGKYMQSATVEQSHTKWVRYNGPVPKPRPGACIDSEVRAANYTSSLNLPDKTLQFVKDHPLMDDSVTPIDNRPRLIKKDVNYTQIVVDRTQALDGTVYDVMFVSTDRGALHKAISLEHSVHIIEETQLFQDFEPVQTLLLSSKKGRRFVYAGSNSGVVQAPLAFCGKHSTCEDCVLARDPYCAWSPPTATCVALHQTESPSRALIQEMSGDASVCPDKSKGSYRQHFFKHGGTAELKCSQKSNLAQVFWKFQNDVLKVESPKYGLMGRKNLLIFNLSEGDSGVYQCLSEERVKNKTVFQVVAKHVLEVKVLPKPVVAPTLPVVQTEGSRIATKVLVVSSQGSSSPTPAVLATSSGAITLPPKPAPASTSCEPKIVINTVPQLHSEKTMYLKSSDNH
Sequence of human SEMA4D-His (human) (Q92854 22-734 limits assumed): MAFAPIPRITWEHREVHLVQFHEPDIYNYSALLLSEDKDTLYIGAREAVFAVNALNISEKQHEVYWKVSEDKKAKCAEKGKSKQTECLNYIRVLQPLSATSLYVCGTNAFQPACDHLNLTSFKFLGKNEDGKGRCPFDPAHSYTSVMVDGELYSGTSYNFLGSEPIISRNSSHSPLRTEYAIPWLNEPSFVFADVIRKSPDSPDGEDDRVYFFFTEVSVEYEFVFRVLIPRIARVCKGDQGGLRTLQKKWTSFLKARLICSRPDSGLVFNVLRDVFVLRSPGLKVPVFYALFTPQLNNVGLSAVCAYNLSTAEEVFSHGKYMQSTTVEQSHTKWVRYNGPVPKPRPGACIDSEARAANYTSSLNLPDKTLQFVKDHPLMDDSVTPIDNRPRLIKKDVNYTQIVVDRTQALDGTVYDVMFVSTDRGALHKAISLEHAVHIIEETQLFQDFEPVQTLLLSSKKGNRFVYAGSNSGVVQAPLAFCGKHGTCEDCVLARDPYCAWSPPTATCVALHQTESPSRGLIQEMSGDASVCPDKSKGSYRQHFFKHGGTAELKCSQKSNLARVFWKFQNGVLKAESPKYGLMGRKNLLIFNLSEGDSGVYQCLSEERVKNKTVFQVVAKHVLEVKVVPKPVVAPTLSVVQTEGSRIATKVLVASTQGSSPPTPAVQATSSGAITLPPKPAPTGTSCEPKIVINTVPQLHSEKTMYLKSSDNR
Sequence of mouse SEMA4D-His (mouse) (O09126 24-733 limits assumed): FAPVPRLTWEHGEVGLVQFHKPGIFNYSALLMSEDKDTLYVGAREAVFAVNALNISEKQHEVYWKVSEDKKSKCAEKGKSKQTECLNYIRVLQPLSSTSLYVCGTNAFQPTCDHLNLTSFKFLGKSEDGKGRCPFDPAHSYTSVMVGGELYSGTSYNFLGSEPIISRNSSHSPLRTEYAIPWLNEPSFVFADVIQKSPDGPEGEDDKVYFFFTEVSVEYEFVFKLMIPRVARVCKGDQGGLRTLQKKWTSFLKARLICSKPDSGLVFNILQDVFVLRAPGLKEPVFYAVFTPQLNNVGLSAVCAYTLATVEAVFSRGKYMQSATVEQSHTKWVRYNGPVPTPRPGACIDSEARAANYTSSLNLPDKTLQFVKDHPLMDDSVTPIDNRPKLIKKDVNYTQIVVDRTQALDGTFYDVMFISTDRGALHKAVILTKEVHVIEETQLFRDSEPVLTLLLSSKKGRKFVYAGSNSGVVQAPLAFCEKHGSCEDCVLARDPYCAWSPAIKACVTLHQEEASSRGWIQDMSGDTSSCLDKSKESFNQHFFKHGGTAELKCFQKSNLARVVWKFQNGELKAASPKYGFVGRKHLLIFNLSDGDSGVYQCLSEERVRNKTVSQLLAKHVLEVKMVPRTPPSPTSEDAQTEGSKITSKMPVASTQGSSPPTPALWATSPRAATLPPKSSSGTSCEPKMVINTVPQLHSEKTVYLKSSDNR
Sequence of rat SEMA4D-His (rat) (chain, as listed by the source): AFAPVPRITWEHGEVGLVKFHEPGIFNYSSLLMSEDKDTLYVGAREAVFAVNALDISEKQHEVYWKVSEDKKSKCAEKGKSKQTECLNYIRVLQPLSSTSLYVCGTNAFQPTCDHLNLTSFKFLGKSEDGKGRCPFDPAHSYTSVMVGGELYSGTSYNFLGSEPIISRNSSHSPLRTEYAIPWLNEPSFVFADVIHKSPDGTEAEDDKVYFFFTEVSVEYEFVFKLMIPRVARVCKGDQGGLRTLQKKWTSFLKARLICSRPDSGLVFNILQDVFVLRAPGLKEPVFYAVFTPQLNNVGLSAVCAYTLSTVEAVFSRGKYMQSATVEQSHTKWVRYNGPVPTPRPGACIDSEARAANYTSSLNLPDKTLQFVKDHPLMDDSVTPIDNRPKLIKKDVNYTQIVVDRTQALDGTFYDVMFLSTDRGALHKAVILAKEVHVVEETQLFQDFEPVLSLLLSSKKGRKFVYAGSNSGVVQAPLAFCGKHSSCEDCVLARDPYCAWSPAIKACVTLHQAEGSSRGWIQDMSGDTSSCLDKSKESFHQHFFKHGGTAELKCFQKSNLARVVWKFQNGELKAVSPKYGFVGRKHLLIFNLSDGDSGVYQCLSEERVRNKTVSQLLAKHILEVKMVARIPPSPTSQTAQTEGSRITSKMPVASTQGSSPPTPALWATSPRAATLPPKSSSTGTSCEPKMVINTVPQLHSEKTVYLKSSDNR

B1: humanized MAb 2503 (VX15/2503) (antibody, INN chains, looked up, V domains shown)
VH: QVQLVQSGAEVKKPGSSVKVSCKASGYSFSDYYMHWVRQAPGQGLEWMGQINPTTGGASYNQKFKGKATITVDKSTSTAYMELSSLRSEDTAVYYCARYYYGRHFDVWGQGTTVTVSS
VL: DIVMTQSPDSLAVSLGERATINCKASQSVDYDGDSYMNWYQQKPGQPPKLLIYAASNLESGVPDRFSGSGSGTDFTLTISSLQAEDVAVYYCQQSNEDPYTFGQGTKLEIK
Ka [1]: 2.06e+08 M⁻¹ | Kd [1]: 4860 pM | koff [1]: 0.00118 s⁻¹ | kon [1]: 243000 M⁻¹ s⁻¹ | EC50 (mouse SEMA4D-His (mouse)): 400 pM | EC50 (human SEMA4D-His (human)): 300 pM | EC50 [2]: 500 pM | EC50 (rat SEMA4D-His (rat)): 600 pM | Ka [3]: 2.4e+08 M⁻¹ | Kd [3]: 4170 pM | koff [3]: 0.00126 s⁻¹ | kon [3]: 302000 M⁻¹ s⁻¹
